Data as given in US6692962.

Target: wild type (51S) wheat eIF2α (alpha subunit of wheat eukaryotic initiation factor 2) (wheat)
Assay: cell-based or functional assay

Substance: PKR (IPTG-inducible, expressed from recombinant vaccinia virus WR 68K) (from UniProt P19525 2-551) (enzyme)
- phosphorylated peIF2α 51S, densitometric analyses of western blots (HeLa cells): 3.8 fold
